Consider one variant from IntAct's records for PubMed 32101751.

First the molecules themselves.
B1: Ubiquitin carboxyl-terminal hydrolase 15 (Homo sapiens), Q9Y4E8 (parent)
chain: MAEGGAADLDTQRSDIATLLKTSLRKGDTWYLVDSRWFKQWKKYVGFDSWDKYQMGDQNVYPGPIDNSGLLKDGDAQSLKEHLIDELDYILLPTEGWNKLVSWYTLMEGQEPIARKVVEQGMFVKHCKVEVYLTELKLCENGNMNNVVTRRFSKADTIDTIEKEIRKIFSIPDEKETRLWNKYMSNTFEPLNKPDSTIQDAGLYQGQVLVIEQKNEDGTWPRGPSTPKSPGASNFSTLPKISPSSLSNNYNNMNNRNVKNSNYCLPSYTAYKNYDYSEPGRNNEQPGLCGLSNLGNTCFMNSAIQCLSNTPPLTEYFLNDKYQEELNFDNPLGMRGEIAKSYAELIKQMWSGKFSYVTPRAFKTQVGRFAPQFSGYQQQDCQELLAFLLDGLHEDLNRIRKKPYIQLKDADGRPDKVVAEEAWENHLKRNDSIIVDIFHGLFKSTLVCPECAKISVTFDPFCYLTLPLPMKKERTLEVYLVRMDPLTKPMQYKVVVPKIGNILDLCTALSALSGIPADKMIVTDIYNHRFHRIFAMDENLSSIMERDDIYVFEININRTEDTEHVIIPVCLREKFRHSSYTHHTGSSLFGQPFLMAVPRNNTEDKLYNLLLLRMCRYVKISTETEETEGSLHCCKDQNINGNGPNGIHEEGSPSEMETDEPDDESSQDQELPSENENSQSEDSVGGDNDSENGLCTEDTCKGQLTGHKKRLFTFQFNNLGNTDINYIKDDTRHIRFDDRQLRLDERSFLALDWDPDLKKRYFDENAAEDFEKHESVEYKPPKKPFVKLKDCIELFTTKEKLGAEDPWYCPNCKEHQQATKKLDLWSLPPVLVVHLKRFSYSRYMRDKLDTLVDFPINDLDMSEFLINPNAGPCRYNLIAVSNHYGGMGGGHYTAFAKNKDDGKWYYFDDSSVSTASEDQIVSKAAYVLFYQRQDTFSGTGFFPLDRETKGASAATGIPLESDEDSNDNDNDIENENCMHTN
partner: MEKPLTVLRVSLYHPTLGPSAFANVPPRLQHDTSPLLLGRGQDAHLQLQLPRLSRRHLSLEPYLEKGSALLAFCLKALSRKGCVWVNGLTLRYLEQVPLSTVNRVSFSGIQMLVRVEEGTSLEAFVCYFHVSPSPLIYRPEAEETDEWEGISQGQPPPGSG

Variants of B1 are the subject of the assay. Conditions: with tifab_human TIFAB.
As to C298A, the “effect of a mutation on the interaction” value is given as “decreasing interaction strength”.
